Results published in patent US20260176352A1 (BIRD ROCK BIO, published 2026).

B1: PA2LR3-P6G7 (chimeric) (antibody, human IgG1, kappa, V domains shown)
VH: EVQLQQSGAELVRPGSSVKISCKASGFAFSNYWMNWVKQRPGQGLEWIGQIYPGDGDTNFNGKFKGRAILTADISSNTAYMQLSSLTSEDSAVYFCARSHGNYFPYWGQGTLVTVSA
VL: DIVLTQSPAIMSASLGERVTMTCTASSSVSSSYLHWYQQKPGSSPKLWIYSTSNLASGVPARFSGSGSGTSYSLTISSMEAEDAATYYCHQHHRSPPTFGAGTKLELKR
B2: PA2LR3-P6B12 (chimeric) (antibody, human IgG1, kappa, V domains shown)
VH: EVQLQQSGAELVRPGSSVKISCKASGYAFSYYWMNWVKQRPGQGLEWIGQIYPGDGDTNYNGKFKGKATLTADKSSSTAYMQLSSLTSEDSAVYFCARSHGNYFAYWGQGTLVTVSA
VL: QIVLTQSPAIMSASLGERVTMTCTASSSVSSSYLHWYQQKPGSSPKLWIYSTSNLASGVPARFSGSGSGTSYSLTISSMEAEDAATYYCHQYHRSPLAFGAGTKLELKR
B3: PA2LR3-P3B10 (chimeric) (antibody, V domains shown)
VH: EVQLQQSGAELVRPGSSVKISCKASGYAFSYYWMNWVKQRPGQGLEWIGQIYPGDGDTNYNGKFKGKATLTADKSSSTAYMQLSSLTSEDSAVYFCARSHGNYFPYWGQGTLVTVSA
VL: DIVITQSPAIVSASLGERVTMTCTASSSVSSSYLHWYQQKPGSSPKLWIYSTSNLASGVPARFSGSGSGTSYSLTISSMEAEDAATYYCQQWSSYPLTFGAGTKLEIKR
B4: PA2LR3-P4C6 (chimeric) (antibody, V domains shown)
VH: EVQLQQSGAELVRPGSSVKISCKASGYAFSYYWMNWVKQRPGQGLEWIGQIYPGDGDTNYNGKFKGKATLTADKSSSTAYMQLSSLTSEDSAVYFCARSHGNYFPYWGQGTLVTVSA
VL: DIVITQSPAIVSASLGERVTMTCTASSSVSSSYLHWYQQKPGSSPKLWIYSTSNLASGVPARFSGSGSGTSYSLTISSMEAEDAATYYCQQWSSYPLTFGAGTKLEIKR
B5: PA2LR3-P2D3 (chimeric) (antibody, human IgG1, kappa, V domains shown)
VH: EVQLQQSGAELVRPGSSVKISCKASGYAFSYYWMNWVKQRPGQGLEWIGQIYPGDGDTNYNGKFKGKATLTADKSSSTAYMQLSSLTSEDSAVYFCARSHGSYFAYWGQGTLVTVSA
VL: DIELAQSPASLAVSLGQRATISCRASESVDSYGNSFMHWYQQKPGQPPKLLIYLASNLESGVPARFSGSGSRADFTLTIDPVEADDAATYYCLQYASSPPTFGAGTKLEIKR
B6: PA2LR3-P4B1 (chimeric) (antibody, human IgG1, kappa, V domains shown)
VH: EVQLQQSGAELVRPGSSVKISCKASGFAFSNYWMNWVKQRPGQGLEWIGQIYPGDGDTNFNGKFKGRAILTADISSNTAYMQLSSLTSEDSAVYFCARSHGNYFPYWGQGTLVTVSA
VL: QIVLTQSPAIMSASLGERVTMTCTASSSVSSSYLHWYQQKPGSSPKLWIYSTSNLASGVPARFSGSGSGTSYSLTISSMEAEDAATYYCHQYHRSPLTFGAGTKLELKR
B7: PA2LR3-P2E5 (chimeric) (antibody, V domains shown)
VH: EVQLQQSGAELVRPGSSVKISCKASGYAFRDYWMNWVKQRPGQGLEWIGQIYPGDGATNYIGKFKGKATLTADKSSSTAYMQLSSLTSEDSAVYFCARSHGNYFPYWGHGTLVTVSA
VL: QIVLTQSPAIMSASLGERVTMTCTASSSVSSSYLHWYQQKPGSSPKLWIYSTSNLASGVPARFSGSGSGTSYSLTISSMEAEDAATYYCQQWSSYPLTFGAGTKLELKR
B8: PA2LR3-P1G6 (chimeric) (antibody, V domains shown)
VH: EVQLQQSGAELVRPGSSVKISCKASGYAFSYYWMNWVKQRPGQGLEWIGQIYPGDGDTNYNGKFKGKATLTVDKSSSTAYMQLSSLTSEDSAVYFCARSHGNYFAYWGQGTLVTVSA
VL: DIVLSQSPAIMSASLGERVTMTCTASSSVSSSYLHWYQQKPGSSPKLWIYSTSNLASGVPARFSGSGSGTSYSLTISRMEAEDAATYYCQQWSSYPLTFGAGTKLELKR
B9: PA2LR3-P1H4 (chimeric) (antibody, V domains shown)
VH: EVQLQQSGAELVRPGSSVKISCKASGYVFGNYWMNWVKQRPGQGLEWIGQIYPGDGDTNYNGKFKGKATLTADKSSSTAYMQLSSLTSEDSAVYFCARSHGNYFPYWGQGTLVTVSA
VL: QIVLTQSPAIMSASLGERVTMTCTASSSVSSSYLHWYQQKPGSSPKLWIYSTSNLASGVPARFSGSGSGTSYSLTISSMEAEDAATYYCQQWSSYPLTFGAGTKLELKR
B10: PA2LR3-P3B8 (chimeric) (antibody, V domains shown)
VH: EVQLQQSGAELVRPGSSVKISCKASGFAFSNYWMNWVKQRPGQGLEWIGQIYPGDGDTNFNGKFKGRAILTADISSNTAYMQLSSLTSEDSAVYFCARSHGNYFPYWGQGTLVTVSA
VL: DIVMTQSPAIMSASLGERVTMTCTASSSVSSSYLHWYQQKPGSSPKLWIYGTSNLASGVPVRFSGSGSGTSYSLTISSMEAEDAATYYCQQWSSYPLTFGAGTKLELKR
B11: PA2LR3-P4G10 (chimeric) (antibody, V domains shown)
VH: EVQLQQFGAELVRPGSSVKISCKASGYAFSYYWMNWVKQRPGQGLEWIGQIYPGDGDTNYNGKFKGKATLTADKSSSTAYMQLSSLTSEDSAVYFCARSHGNYFAYWGQGTLVTVSA
VL: DIVLTQSPAIMSASLGERVTMTCTASSSVSSSYLHWYQQKPGSSPKLWIYSTSNLASGVPARFSGSGSGTSYSLTISSMEAEDAATYYCQQWSSNPLTFGAGTKLELKR
B12: PA2LR3-P2B8 (chimeric) (antibody, V domains shown)
VH: EVQLQQSGAELVRPGSSVKISCKASGYAFSYYWMNWVKQRPGQGLEWIGQIYPGDGDTNYNGKFKGKATLTADKSSSTAYMQLSSLTSEDSAVYFCARSHGNYFAYWGQGTLVTVSA
VL: DIVMTQSPAIMSASLGERVTMTCTASSSISSSYLHWYQQKPGSSPKLWIYSTSNLASGVPARFSGSGSGTSYSLTISSMEAEDAATYYCHQYHRSPLAFGAGTKLELKR
B13: PA2R3-P1F1 (chimeric) (antibody, V domains shown)
VH: EVQLQQSGAELMKPGASVKISCKATGYTFSSYWIEWVKQRPGHGLEWIGEILPGSGSTNYNEKFKGKATFTADTSSNTAYMQLSSLTSEDSAVYYCARGAWLLSYWYFDVWGAGTSVTVSS
VL: DIQMMQSTSSLSASLGDRVTISCSASQGISNYLNWYQQKPDGTVKLLIYYTSSLHSGVPSRFSGSGSGTQFSLKINSLQPEDFGSYYCQHHYGTPYTFGGGTKLELKR

Legend:
[1] = target: native full length human CB1 receptor (cannabinoid 1 receptor) (human, UniProt P21554 1-472); experiment: cell-based or functional assay
[2] = target: T1, A138 iCAPS (CB1 with ICL3 native sequence replaced with protein 1 sequence) (human, UniProt P21554 99-414); experiment: ELISA, purified IgG on A138 CB1 iCAPS
T1 construct: The insert stands inside the chain in place of ICL3
Protocol: (§1) Purified IgG was tested for binding to purified CB1 receptor (CB1 Conformation Antigen Presenting System (iCAPS)) by ELISA. Non-biotinylated antigens (e.g. empty iCAPS) were coated directly on Maxisorp plates. The primary antibodies were purified IgGs with 1:3 serial dilutions, incubated on the plate for 1 hour. After 3 rounds of washing with PBST, secondary antibodies HRP goat anti-mouse IgG (Abmart) or HRP goat anti-human IgG (Sigma), depending on the species of the IgGs were added and incubated for another hour. The plates were washed three times with PBST, then developed with TMB (Biopanda). HCl was added to the plates to stop the reaction. Absorbance at 450 nm was read on Emax precision microplate reader (Molecular Devices).

[3] = target: T2, A139 iCAPS (CB1 with ICL3 native sequence replaced with BRIL) (human, UniProt P21554 99-414); experiment: ELISA, purified IgG on A139 CB1 iCAPS
T2 construct: The insert stands inside the chain in place of ICL3
Protocol: as §1

T2 sequence (P21554 whole entry): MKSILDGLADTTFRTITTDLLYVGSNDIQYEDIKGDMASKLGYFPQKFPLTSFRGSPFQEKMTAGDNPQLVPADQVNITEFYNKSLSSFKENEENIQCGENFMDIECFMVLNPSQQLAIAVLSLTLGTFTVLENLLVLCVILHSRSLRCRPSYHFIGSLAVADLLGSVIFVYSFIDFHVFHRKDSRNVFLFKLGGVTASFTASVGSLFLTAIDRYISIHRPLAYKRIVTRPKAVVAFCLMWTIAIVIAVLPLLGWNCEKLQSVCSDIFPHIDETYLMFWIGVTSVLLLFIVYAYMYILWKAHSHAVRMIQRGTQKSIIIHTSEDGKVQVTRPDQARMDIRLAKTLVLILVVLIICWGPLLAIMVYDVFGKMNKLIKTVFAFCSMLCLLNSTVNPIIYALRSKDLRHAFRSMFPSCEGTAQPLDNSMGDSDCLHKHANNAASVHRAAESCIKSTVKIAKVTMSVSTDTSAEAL
T1 sequence (P21554 whole entry): as above
native full length human CB1 receptor (cannabinoid 1 receptor), sequence (P21554 whole entry): as above

Row | Binder | EC50, cAMP agonist functional assay [1] [nM] | EC50, cAMP assay in the presence of CP55940 [1] [nM] | EC50 [2] [nM] | EC50 [3] [nM]
1 | B1 | > 300 | – | – | –
2 | B2 | – | ~1000 | – | –
3 | B3 | – | – | 1.4 | 0.78
4 | B4 | – | – | 0.4 | 0.4
5 | B5 | > 300 | – | 4.9 | 2.6
6 | B6 | > 300 | – | 1.28 | 1.41
7 | B7 | – | – | 10 | 3.2
8 | B8 | – | – | 81 | 35
9 | B9 | – | – | 21 | 33.5
10 | B10 | – | – | 71 | –
11 | B11 | – | – | 1.19 | 1.35
12 | B12 | – | – | 6.7 | 1.8
13 | B13 | – | – | 1.3 | 1.1
